Results from article PMC6379675, “Structural insights into chromosome attachment to the nuclear envelope by an inner nuclear membrane protein Bqt4 in fission yeast” (Nucleic Acids Research, 2018).

B1: Rap1_(479–527) [S. pombe] / Bqt4_(2–140), N-terminal domain of Bqt4 [S. pombe] (parent complex)
chain 1: EIPLLSDYSDSENISEKSSDDEEAFEKQVTSSYSSPIKVKSQGKSSKGS
chain 2: TENEKSRSLPAERNPLYKDDTLDHTPLIPKCRAQVIEFPDGPATFVRLKCTNPESKVPHFLMRMAKDSSISATSMFRSAFPKATQEEEDLEMRWIRDNLNPIEDKRVAGLWVPPADALALAKDYSMTPFINALLEASST
B2: Sad1 (residues 88–101) [S. pombe] / Bqt4_(2–140), N-terminal domain of Bqt4 [S. pombe] (parent complex)
chain 1: SDNEEFENVVKNGH
chain 2: B1 chain 2
B3: Lem2_(261–279) [S. pombe] / Bqt4_(2–140), N-terminal domain of Bqt4 [S. pombe] (parent complex)
chain 1: SAEEDDELFQNYVLQQTRK
chain 2: B1 chain 2

Variants of: B1
Assay: ITC; parent: 1.14e+04 nM

Kd [µM]	Variant
138	chain 1 EIPLLSDYSDSENISEKSSDDEEAFEKQATSSYSSPIKVKSQGKSSKGS [chain 1 V29A]
862	chain 1 EIPLLSDYSDSENISEKSSDAAEAFEKQVTSSYSSPIKVKSQGKSSKGS [chain 1 D21A, chain 1 E22A]
106	chain 1 EIPLLSDYSDSENISEKSSDDEEAAEKQVTSSYSSPIKVKSQGKSSKGS [chain 1 F25A]

Variants of: B1
Assay: ITC; parent: 1.14e+04 nM
Remark: another data set of the same source

Kd [µM]	Variant
12.3	chain 2 TENEKSRSLPAERNPLYKDDTLDHTPLIPKCAAQVIEFPDGPATFVRLKCTNPESKVPHFLMRMAKDSSISATSMFRSAFPKATQEEEDLEMRWIRDNLNPIEDKRVAGLWVPPADALALAKDYSMTPFINALLEASST [chain 2 R32A]
14.4	chain 2 TENEKSRSLPAERNPLYKDDTLDHTPLIPKCRAQVIEFPDGPATFVRLKCTNPESKVPHFLMRMAKDSSISATSMFRSAFPKATQEEERLEMRWIRDNLNPIEDKRVAGLWVPPADALALAKDYSMTPFINALLEASST [chain 2 D89R]

Variants of: B1
Assay: ITC; parent: 1.14e+04 nM
Remark: another data set of the same source

Variant	Kd [µM]
chain 1 EIPLLSDYSDSENISEKAADDEEAFEKQVTSSYSSPIKVKSQGKSSKGS [chain 1 S18A, chain 1 S19A]	8
chain 1 EIPLLSDYSDSENISEKSADDEEAFEKQVTSSYSSPIKVKSQGKSSKGS [chain 1 S19A]	9.5
chain 1 EIPLLSDYSDSENISEKSEDDEEAFEKQVTSSYSSPIKVKSQGKSSKGS [chain 1 S19E]	2.6
chain 1 EIPLLSDYSDSENISEKSSDDEEAFEKQVTSSYESPIKVKSQGKSSKGS [chain 1 S34E]	27.2
chain 1 EIPLLSDYSDSENISEKSSDDEEAFEKQVTSSYASPIKVKSQGKSSKGS [chain 1 S34A]	7.1
chain 1 EIPLLSDYSDSENISEKESDDEEAFEKQVTSSYSSPIKVKSQGKSSKGS [chain 1 S18E]	2.4
chain 1 EIPLLSDYSDSENISEKASDDEEAFEKQVTSSYSSPIKVKSQGKSSKGS [chain 1 S18A]	10.6
chain 1 EIPLLSDYSDSENISEKSSDDEEAFEKQVTSSYEEPIKVKSQGKSSKGS [chain 1 S34E, chain 1 S35E]	115
chain 1 EIPLLSDYSDSENISEKEEDDEEAFEKQVTSSYSSPIKVKSQGKSSKGS [chain 1 S18E, chain 1 S19E]	0.9
chain 1 EIPLLSDYSDSENISEKSSDDEEAFEKQVTSSYAAPIKVKSQGKSSKGS [chain 1 S34A, chain 1 S35A]	7.3

Further lines, results first:

Kd [µM]	Variant
57.8	chain 1 EIPLLSDYSDSENISEKSSDDEEAFEKQVTSSYSEPIKVKSQGKSSKGS [chain 1 S35E]
7.9	chain 1 EIPLLSDYSDSENISEKSSDDEEAFEKQVTSSYSAPIKVKSQGKSSKGS [chain 1 S35A]

Variants of: B1
Assay: ITC; parent: 1.14e+04 nM
Remark: another data set of the same source

Kd [µM]	Variant
909	chain 2 TENEKSRSLPAERNPLYKDDTLDHTPLIPKCRAQVIEFPDGPATFVRLKCTNPESKVPHALMRMAKDSSISATSMFRSAFPKATQEEEDLEMRWIRDNLNPIEDKRVAGLWVPPADALALAKDYSMTPFINALLEASST [chain 2 F60A]

Variants of: B2
Assay: ITC; parent: 3.7e+03 nM

Kd [µM]	Variant
262	chain 2 TENEKSRSLPAERNPLYKDDTLDHTPLIPKCRAQVIEFPDGPATFVELKCTNPESKVPHFLMRMAKDSSISATSMFRSAFPKATQEEEDLEMRWIRDNLNPIEDKRVAGLWVPPADALALAKDYSMTPFINALLEASST [chain 2 R47E]

Variants of: B3
Assay: ITC; parent: 530 nM

Kd [µM]	Variant
46	chain 2 TENEKSRSLPAERNPLYKDDTLDHTPLIPKCRAQVIEFPDGPATFVRLKCTNPESKVPHALMRMAKDSSISATSMFRSAFPKATQEEEDLEMRWIRDNLNPIEDKRVAGLWVPPADALALAKDYSMTPFINALLEASST [chain 2 F60A]
3.2	chain 2 TENEKSRSLPAERNPLYKDDTLDHTPLIPKCRAQVIEFPDGPATFVELKCTNPESKVPHFLMRMAKDSSISATSMFRSAFPKATQEEEDLEMRWIRDNLNPIEDKRVAGLWVPPADALALAKDYSMTPFINALLEASST [chain 2 R47E]
